The target of one experiment is papain. Kind of experiment: Enzymatic inhibitory activity against papain (kinetic analysis, Z-Phe-Arg-AMC substrate). It counts as biochemical. The settings on record: papain 380 pM, substrate Z-Phe-Arg-AMC 5 μM, 0.1M phosphate buffer pH 6.0. On the procedure: (§1) The inhibitory activity of Elstatin (polypeptide of the present invention) against papain and cathepsin L was measured by the method of Barrett, A. J. and Kirschke, H. described in Method Enzymol., 80, 535-561 (1981) using Bz--DL--Arg-2-naphthylamide or Z--Phe--Arg--MCA as a substrate (Bz, Z and AMC represent benzoyl, benzyloxycarbonyl, and 4-methyl-7-coumarylamide).
(§2) The active site of the enzyme was titrated using a cysteine protease inhibitor Ep-475 (L-3-carboxy-trans-2,3-epoxypropyl-leucylamide-(3-guanizino)butane). Papain which had undergone the titration of active site was used to determine the molarity of the inhibitor (Turk, B. et al. J. Biol. Chem. 268, 7323-7329 (1993)).
(§3) The rate of the reaction employing Z--Phe--Arg--AMC as a substrate was determined by the kinetic analysis of Elstatin, papain, and cathepsin L. Different concentrations of Elstatin and a substrate (papain: 5 μM, cathepsin L: 10 μM) were dissolved in 1.97 ml of a buffer solution described above. In the measurement of cathepsin L, 0.34M acetate buffer (pH 5.5) containing 2 mM dithiothreitol and 1.5 mM EDTA was used. The reaction was started by the addition of 30 μl of activated papain (final concentration: 380 pM) and cathepsin L (final concentration: 60 pM). […] The obtained data were analysed by a non-linear regression analysis of Morrison (Trends Biochem. Sci. 7, 102-105 (1982)).

The target of a further experiment is cathepsin B. Description: Enzymatic inhibitory activity against cathepsin B (stopped assay). It is filed as biochemical. The note with it: cathepsin B 130 nM, Elstatin 50-750 nM, pH 6.0, 25° 20 minutes, Bz-DL-Arg-2-naphthylamide. The method, then:
(§4) Equilibrium dissociation constant (Ki) of Elstatin and cathepsin B and H was determined using stopped assay method. In detail, cathepsin B (final concentration: 130 nM) and cathepsin H (final concentration: 25 nM) were incubated together with different concentrations of Elstatin (final concentration: 50-750 nM) in 0.1M phosphate buffer (pH 6.0) containing 2 mM of dithiothreitol and 1.5 mM of EDTA at 25° for 20 minutes. The residual activity was determined using Bz--DL--Arg-2-naphthylamide as a substrate conditions identical to those according to Barrett, A. J. and Kirschke, H. mentioned above. The value Ki was calculated using a method of Henderson (Biochem. J. 127, 321-333 (1972)).

The next experiment addresses cathepsin H. Description: Enzymatic inhibitory activity against cathepsin H (stopped assay). It is filed as biochemical. The settings on record: cathepsin H 25 nM, Elstatin 50-750 nM, pH 6.0, 25° 20 minutes, Bz-DL-Arg-2-naphthylamide. The method, then: as §4
The next experiment deals with cathepsin L. Kind of experiment: Enzymatic inhibitory activity against cathepsin L (kinetic analysis, Z-Phe-Arg-AMC substrate). It counts as biochemical. The method, then:
as §1, §2, §3

For experiment [1], the system named is unfractionated bone cells (osteoclastic bone resorption). Kind of experiment: Bone resorption inhibitory action (pit formation on ivory slices, parathyroid hormone induced). It counts as cell-based, Sprague-Dawley rats. The note with it: 50 nM human parathyroid hormone, 72 hours, FIG. 1. On the procedure: A method proposed by McSheehy, P. M. J. and Chambers, T. J. in J Clin. Invest., 80, 425-429 (1987) was partly modified and applied.
Unfractionated bone cells were prepared from tibiae, femora and humeri of 1 to 2 day-old Sprague-Dawley rats. The bones were dissected into soft tissues in an ice-cold medium (pH 7.2) [α-minimum essential medium (α-MEM) (Flow Laboratories, McLean, Va.), supplemented with 100 IU/ml of benzylpenicillin] containing 20 mM N-2-hydroxyethyl-piperazine-N'-ethanesulfonic acid (HEPES). In order to prepare a bone cell preparation, long bones were minced with a pair of scissors in the same medium. Subsequently, the cell suspension was triturated with a wide bored plastic pipette. 200 μl of cell suspension (1×10^6 cells/ml) was added to each well of a 96 well-plate containing an ivory slice (thickness: 150 μm, diameter: 6 mm; ultrasonicated and disinfected with 75% ethanol), and the cells were incubated at 37° C. for 2 hours in a CO2 incubator (5% CO2 : 95% air). The slices were washed with α-MEM, and transferred to a HEPES-free fresh medium containing 10% FBS, each of test samples of various concentrations and 50 nM of human parathyroid hormone (Peninsula Laboratories Inc., Belmond, Calif.) and incubated for 72 hours. […] The total area of pits was measured under a microscope to detect possible osteoclastic bone resorption.

B1: Elstatin: Novel 103-residue polypeptide (Sequence No. 1) isolated from pig leucocyte cytosol; specifically inhibits cathepsin L (protein)
chain: MESEEMLAGGLTEPRPATPEIQEIANKVKPQLEEKTNKTYEKFEAIIYRSQVVAGTNYYIKVHVGGNNYVHIRVFQSLPHQEDPLKLIGYQVDKTKDDELTGF
In the case of B1, the inhibition constant (Ki) (as a rule, the equilibrium dissociation constant of an inhibitor or competing ligand from its target) amounted to 0.19 ± 0.097 nM at papain; 335 ± 50 nM at cathepsin B; 125 ± 7 nM at cathepsin H; 0.067 ± 0.036 nM on cathepsin L (cathepsin L 60 pM, substrate Z-Phe-Arg-AMC 10 μM, 0.34M acetate buffer pH 5.5). Moreover, in the experiment on cathepsin L (cathepsin L versus cathepsins B and H), the “Specificity of inhibition among the cathepsin group” value is “specifically inhibits only cathepsin L among the members of the cathepsin group”. For the same molecule, the “Bone resorption inhibitory action (total area of pits)” value in experiment [1] was “significantly potent bone resorption inhibitory action”.

The values are drawn from patent US5698519A, “Polypeptide specifically inhibiting cathepsin L” (Taiho Pharmaceutical Co., Ltd., priority 1993, dated 1997).
